Experimental data as given in the supplement of paper PMC11316812.
± gives the standard deviation of the averaged measurements.

Legend:
MCF7 = experiment: percentage of EdU-negative (G0-arrested) nuclei per well, 72 h; higher = more G0 arrest; conditions: reference: sequence is the full UniProt precursor, the tested protein was the secreted form or ectodomain
hTERT-HMEC = experiment: as above; conditions: reference: sequence is the full UniProt precursor, the tested protein was the secreted form or ectodomain
[1] = protein concentration 0.018845 µM
[2] = protein concentration 0.18845 µM
[3] = protein concentration 0.03025 µM
[4] = protein concentration 0.3025 µM
[5] = protein concentration 0.0257143 µM
[6] = protein concentration 0.257143 µM
[7] = protein concentration 0.0225 µM
[8] = protein concentration 0.0175 µM
[9] = protein concentration 0.0325714 µM
[10] = protein concentration 0.325714 µM
[11] = protein concentration 0.00575 µM
[12] = protein concentration 0.0575 µM
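Also: secreted proteins added to cultured cells, EdU pulse at the end, nuclei found by Hoechst imaging, EdU status from nuclear versus surrounding ring intensity ratio, PBS as neutral control.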

“MRGAARAAWGRAGQPWPRPPAPGPPPPPLPLLLLLLAGLLGGAGAQYSSDRCSWKGSGLTHEAHRKEVEQVYLRCAAGAVEWMYPTGALIVNLRPNTFSPARHLTVCIRSFTDSSGANIYLEKTGELRLLVPDGDGRPGRVQCFGLEQGGLFVEATPQQDIGRRTTGFQYELVRRHRASDLHELSAPCRPCSDTEVLLAVCTSDFAVRGSIQQVTHEPERQDSAIHLRVSRLYRQKSRVFEPVPEGDGHWQGRVRTLLECGVRPGHGDFLFTGHMHFGEARLGCAPRFKDFQRMYRDAQERGLNPCEVGTD [Q641Q3]” was tested, and the “percentage of EdU-negative” value (MCF7; [1]) was 26.1 ± 2.3%, the “percentage of EdU-negative” value (MCF7; [2]) was 35.6 ± 1.1% and the “percentage of EdU-negative” value (hTERT-HMEC; [1]) was 5.45 ± 1.1%. For the same sequence, the “percentage of EdU-negative” value (hTERT-HMEC; [2]) was 18.2 ± 6%.

With “MGVCGYLFLPWKCLVVVSLRLLFLVPTGVPVRSGDATFPKAMDNVTVRQGESATLRCTIDNRVTRVAWLNRSTILYAGNDKWCLDPRVVLLSNTQTQYSIEIQNVDVYDEGPYTCSVQTDNHPKTSRVHLIVQVSPKIVEISSDISINEGNNISLTCIATGRPEPTVTWRHISPKAVGFVSEDEYLEIQGITREQSGDYECSASNDVAAPVVRRVKVTVNYPPYISEAKGTGVPVGQKGTLQCEASAVPSAEFQWYKDDKRLIEGKKGVKVENRPFLSKLIFFNVSEHDYGNYTCVASNKLGHTNASIMLFGPGAVSEVSNGTSRRAGCVWLLPLLVLHLLLKF [Q9P121]” the “percentage of EdU-negative” value (MCF7; [3]) was 24.73 ± 0.092%, the “percentage of EdU-negative” value (MCF7; [4]) was 28.9 ± 1.9% and the “percentage of EdU-negative” value (hTERT-HMEC; [3]) was 5.01 ± 0.68%. For the same sequence, the “percentage of EdU-negative” value (hTERT-HMEC; [4]) was 6.84 ± 0.93%.

“MHLLLFQLLVLLPLGKTTRHQDGRQNQSSLSPVLLPRNQRELPTGNHEEAEEKPDLFVAVPHLVATSPAGEGQRQREKMLSRFGRFWKKPEREMHPSRDSDSEPFPPGTQSLIQPIDGMKMEKSPLREEAKKFWHHFMFRKTPASQGVILPIKSHEVHWETCRTVPFSQTITHEGCEKVVVQNNLCFGKCGSVHFPGAAQHSHTSCSHCLPAKFTTMHLPLNCTELSSVIKVVMLVEECQCKVKTEHEDGHILHAGSQDSFIPGVSA” was tested, and the “percentage of EdU-negative” value (MCF7; [5]) was 23.4 ± 3.4%, the “percentage of EdU-negative” value (MCF7; [6]) was 24.2 ± 0.59% and the “percentage of EdU-negative” value (hTERT-HMEC; [5]) was 4.67 ± 0.26%. For the same sequence, the “percentage of EdU-negative” value (hTERT-HMEC; [6]) was 5.44 ± 1.3%.

For “MAWMLLLILIMVHPGSCALWVSQPPEIRTLEGSSAFLPCSFNASQGRLAIGSVTWFRDEVVPGKEVRNGTPEFRGRLAPLASSRFLHDHQAELHIRDVRGHDASIYVCRVEVLGLGVGTGNGTRLVVEKEHPQLGAGTVLLLRAGFYAVSFLSVAVGSTVYYQGKCLTWKGPRRQLPAVVPAPLPPPCGSSAHLLPPVPGG”, the “percentage of EdU-negative” value (MCF7; [7]) was 22.75 ± 0.21%, the “percentage of EdU-negative” value (MCF7; protein concentration 0.225 µM) was 23.2 ± 1.3% and the “percentage of EdU-negative” value (hTERT-HMEC; [7]) was 4.49 ± 0.81%. For the same sequence, the “percentage of EdU-negative” value (hTERT-HMEC; protein concentration 0.225 µM) was 4.92 ± 0.2%.

For “MGPPSSSGFYVSRAVALLLAGLVAALLLALAVLAALYGHCERVPPSELPGLRDLEAESSPPLRQKPTPTPKPSSARELAVTTTPSNWRPPGPWDQLRLPPWLVPLHYDLELWPQLRPDELPAGSLPFTGRVNITVRCTVATSRLLLHSLFQDCERAEVRGPLSPGTGNATVGRVPVDDVWFALDTEYMVLELSEPLKPGSSYELQLSFSGLVKEDLREGLFLNVYTDQGERRALLASQLEPTFARYVFPCFDEPALKATFNITMIHHPSYVALSNMPKLGQSEKEDVNGSKWTVTTFSTTPHMPTYLVAFVICDYDHVNRTERGKEIRIWARKDAIANGSADFALNITGPIFSFLEDLFNISYSLPKTDIIALPSFDNHAMENWGLMIFDESGLLLEPKDQLTEKKTLISYVVSHEIGHQWFGNLVTMNWWNNIWLNEGFASYFEFEVINYFNPKLPRNEIFFSNILHNILREDHALVTRAVAMKVENFKTSEIQELFDIFTYSKGASMARMLSCFLNEHLFVSALKSYLKTFSYSNAEQDDLWRHFQMAIDDQSTVILPATIKNIMDSWTHQSGFPVITLNVSTGVMKQEPFYLENIKNRTLLTSNDTWIVPILWIKNGTTQPLVWLDQSSKVFPEMQVSDSDHDWVILNLNMTGYYRVNYDKLGWKKLNQQLEKDPKAIPVIHRLQLIDDAFSLSKNNYIEIETALELTKYLAEEDEIIVWHTVLVNLVTRDLVSEVNIYDIYSLLKRYLLKRLNLIWNIYSTIIRENVLALQDDYLALISLEKLFVTACWLGLEDCLQLSKELFAKWVDHPENEIPYPIKDVVLCYGIALGSDKEWDILLNTYTNTTNKEEKIQLAYAMSCSKDPWILNRYMEYAISTSPFTSNETNIIEVVASSEVGRYVAKDFLVNNWQAVSKRYGTQSLINLIYTIGRTVTTDLQIVELQQFFSNMLEEHQRIRVHANLQTIKNENLKNKKLSARIAAWLRRNT [Q6Q4G3]”, the “percentage of EdU-negative” value (MCF7; [8]) was 22.3 ± 0.34%, the “percentage of EdU-negative” value (MCF7; protein concentration 0.175 µM) was 27.4 ± 4.3% and the “percentage of EdU-negative” value (hTERT-HMEC; [8]) was 5.44 ± 0.3%. For the same sequence, the “percentage of EdU-negative” value (hTERT-HMEC; protein concentration 0.175 µM) was 16.6 ± 0.49%.

For “MRKFAYCKVVLATSLIWVLLDMFLLLYFSECNKCDEKKERGLPAGDVLEPVQKPHEGPGEMGKPVVIPKEDQEKMKEMFKINQFNLMASEMIALNRSLPDVRLEGCKTKVYPDNLPTTSVVIVFHNEAWSTLLRTVHSVINRSPRHMIEEIVLVDDASERDFLKRPLESYVKKLKVPVHVIRMEQRSGLIRARLKGAAVSKGQVITFLDAHCECTVGWLEPLLARIKHDRRTVVCPIIDVISDDTFEYMAGSDMTYGGFNWKLNFRWYPVPQREMDRRKGDRTLPVRTPTMAGGLFSIDRDYFQEIGTYDAGMDIWGGENLEISFRIWQCGGTLEIVTCSHVGHVFRKATPYTFPGGTGQIINKNNRRLAEVWMDEFKNFFYIISPGVTKVDYGDISSRVGLRHKLQCKPFSWYLENIYPDSQIPRHYFSLGEIRNVETNQCLDNMARKENEKVGIFNCHGMGGNQVFSYTANKEIRTDDLCLDVSKLNGPVTMLKCHHLKGNQLWEYDPVKLTLQHVNSNQCLDKATEEDSQVPSIRDCNGSRSQQWLLRNVTLPEIF”, the “percentage of EdU-negative” value (MCF7; [7]) was 25.1 ± 1%, the “percentage of EdU-negative” value (MCF7; protein concentration 0.225 µM) was 23.6 ± 2.5% and the “percentage of EdU-negative” value (hTERT-HMEC; [7]) was 4.8 ± 0.5%. The “percentage of EdU-negative” value (hTERT-HMEC; protein concentration 0.225 µM) was 5.577 ± 0.015%.

For “MLKPSLPFTSLLFLQLPLLGVGLNTTILTPNGNEDTTADFFLTTMPTDSLSVSTLPLPEVQCFVFNVEYMNCTWNSSSEPQPTNLTLHYWYKNSDNDKVQKCSHYLFSEEITSGCQLQKKEIHLYQTFVVQLQDPREPRRQATQMLKLQNLVIPWAPENLTLHKLSESQLELNWNNRFLNHCLEHLVQYRTDWDHSWTEQSVDYRHKFSLPSVDGQKRYTFRVRSRFNPLCGSAQHWSEWSHPIHWGSNTSKENPFLFALEAVVISVGSMGLIISLLCVYFWLERTMPRIPTLKNLEDLVTEYHGNFSAWSGVSKGLAESLQPDYSERLCLVSEIPPKGGALGEGPGASPCNQHSPYWAPPCYTLKPET”, the “percentage of EdU-negative” value (MCF7; [9]) was 24.7 ± 0.8%, the “percentage of EdU-negative” value (MCF7; [10]) was 26.37 ± 0.19% and the “percentage of EdU-negative” value (hTERT-HMEC; [9]) was 5.08 ± 0.64%. The “percentage of EdU-negative” value (hTERT-HMEC; [10]) was 5.6 ± 1.3%.

For “MVRPMLLLSLGLLAGLLPALAACPQNCHCHSDLQHVICDKVGLQKIPKVSEKTKLLNLQRNNFPVLAANSFRAMPNLVSLHLQHCQIREVAAGAFRGLKQLIYLYLSHNDIRVLRAGAFDDLTELTYLYLDHNKVTELPRGLLSPLVNLFILQLNNNKIRELRAGAFQGAKDLRWLYLSENALSSLQPGALDDVENLAKFHVDRNQLSSYPSAALSKLRVVEELKLSHNPLKSIPDNAFQSFGRYLETLWLDNTNLEKFSDGAFLGVTTLKHVHLENNRLNQLPSNFPFDSLETLALTNNPWKCTCQLRGLRRWLEAKASRPDATCASPAKFKGQHIRDTDAFRSCKFPTKRSKKAGRH”, the “percentage of EdU-negative” value (MCF7; [11]) was 26.1 ± 0.54%, the “percentage of EdU-negative” value (MCF7; [12]) was 29 ± 0.99% and the “percentage of EdU-negative” value (hTERT-HMEC; [11]) was 5.33 ± 0.1%. The “percentage of EdU-negative” value (hTERT-HMEC; [12]) was 7.33 ± 0.97%.

In the case of “MAARALCMLGLVLALLSSSSAEEYVGLSANQCAVPAKDRVDCGYPHVTPKECNNRGCCFDSRIPGVPWCFKPLQEAECTF”, the “percentage of EdU-negative” value (MCF7; [7]) is reported as 26.62 ± 0.26%, the “percentage of EdU-negative” value (MCF7; protein concentration 0.225 µM) is reported as 24 ± 0.99% and the “percentage of EdU-negative” value (hTERT-HMEC; [7]) is reported as 4.3 ± 0.16%. The “percentage of EdU-negative” value (hTERT-HMEC; protein concentration 0.225 µM) was 4.29 ± 0.22%.

In the case of “MEIVWEVLFLLQANFIVCISAQQNSPKIHEGWWAYKEVVQGSFVPVPSFWGLVNSAWNLCSVGKRQSPVNIETSHMIFDPFLTPLRINTGGRKVSGTMYNTGRHVSLRLDKEHLVNISGGPMTYSHRLEEIRLHFGSEDSQGSEHLLNGQAFSGEVQLIHYNHELYTNVTEAAKSPNGLVVVSIFIKVSDSSNPFLNRMLNRDTITRITYKNDAYLLQGLNIEELYPETSSFITYDGSMTIPPCYETASWIIMNKPVYITRMQMHSLRLLSQNQPSQIFLSMSDNFRPVQPLNNRCIRTNINFSLQGKDCPNNRAQKLQYRVNEWLLK [Q9NS85]”, the “percentage of EdU-negative” value (MCF7; [7]) is reported as 25.5 ± 2.5%, the “percentage of EdU-negative” value (MCF7; protein concentration 0.225 µM) is reported as 27.9 ± 0.69% and the “percentage of EdU-negative” value (hTERT-HMEC; [7]) is reported as 5.049 ± 0.027%. The “percentage of EdU-negative” value (hTERT-HMEC; protein concentration 0.225 µM) was 8.51 ± 1.1%.

With “MPGGCSRGPAAGDGRLRLARLALVLLGWVSSSSPTSSASSFSSSAPFLASAVSAQPPLPDQCPALCECSEAARTVKCVNRNLTEVPTDLPAYVRNLFLTGNQLAVLPAGAFARRPPLAELAALNLSGSRLDEVRAGAFEHLPSLRQLDLSHNPLADLSPFAFSGSNASVSAPSPLVELILNHIVPPEDERQNRSFEGMVVAALLAGRALQGLRRLELASNHFLYLPRDVLAQLPSLRHLDLSNNSLVSLTYVSFRNLTHLESLHLEDNALKVLHNGTLAELQGLPHIRVFLDNNPWVCDCHMADMVTWLKETEVVQGKDRLTCAYPEKMRNRVLLELNSADLDCDPILPPSLQTSYVFLGIVLALIGAIFLLVLYLNRKGIKKWMHNIRDACRDHMEGYHYRYEINADPRLTNLSSNSDV” the “percentage of EdU-negative” value (MCF7; [7]) was 25.8 ± 1.4%, the “percentage of EdU-negative” value (MCF7; protein concentration 0.225 µM) was 27.9 ± 0.44% and the “percentage of EdU-negative” value (hTERT-HMEC; [7]) was 4.65 ± 0.22%. The “percentage of EdU-negative” value (hTERT-HMEC; protein concentration 0.225 µM) was 6.38 ± 0.11%.
